The supplement of paper PMC9170038

Columns and labels:
MS2 coat protein [1] = assay: apparent KD of MS2 coat protein, switch ON state; designed switch direction (-1 OFF switch, 1 ON switch): 1; higher = weaker reporter binding; settings: FMN input: 0 or 200 uM; Eterna round: R93 (includes R88 designs)
Summary of the method: (§1)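 Illumina sequencing clusters served as templates for on-chip transcription of the designed RNA switches. SNAP-549-labelled MS2 coat protein was then titrated in twofold steps from 0.7 or 1.5 nM to 3 µM, allowing 0.8–1.5 h per step at first and 10–20 min per step later. The buffer held 100 mM Tris-HCl pH 7.5, 80 mM KCl and 4 mM MgCl2, without or with constant ligand. Apparent KD is the median per design of normalised cluster binding-curve fits.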

MS2 coat protein [2] = assay: apparent KD of MS2 coat protein, switch OFF state (with FMN for OFF switches, without FMN for ON switches); designed switch direction (-1 OFF switch, 1 ON switch): 1; higher = weaker reporter binding; settings: FMN input: 0 or 200 uM; Eterna round: R93 (includes R88 designs)
Summary of the method: as §1

| Sequence | apparent KD of MS2 coat protein (MS2 coat protein [1]) [nM] | apparent KD of MS2 coat protein (MS2 coat protein [2]) [nM] |
| --- | --- | --- |
| AGGAAACAUGAGGAUCACCCAUGUAAAAAUAUGGAAGGAUAUGGAAACACGAAAGUGAAACCAGAAGGUUCAAAAA [77%, Mat - Mod of Eli, 22] | 18.5 | 24.7 |
| UUACAACAUGAGGAUCACCCAUGUAAACCCGACUAAGGAUAUGGAGUGAAAGAUAUCAUCCCAGAAGGUAGAAAUA [Istegeisis] | 48.2 | 53.3 |
| AAAUAACAUGCGCAGGAUAUGAGACCGAUAACAUGAGGAUCACCCAUGUUAAGGAAGAAAUAAAAUCAGAAGGGUGGGUGGACCU [Aatteri] | 25.7 | 26.6 |
| GAAAAACAUGAGGAUCACCCAUGUGUAAAUAUGGGAGGAUAUACAAAGACGUAAGUCAGAGUAGAAGGCCUAAAAG [Garnet 93] | 29 | 176 |
| AGGAGACAUGAGGAUCACCCAUGUGAGAAGAGGCGAGGAUAUCGAAAAAAAAAAAGAAAACGAGAAGGCGCGAGAA [salish99-SS1-014] | 244 | 59.9 |
| AUAAAUAAAAGAGAGGAUAUCCAAAAUAAAACAUGAGGAUCACCCAUGUAAAAUAAAAUAAAAUGGGAGAAGGCUCAAAAUAAAU [SS2 M 2] | 21.6 | 72.1 |
| AAAAAACAUGAGGAUCACCCAUGUAAAAAAAUCGCAGGAUAUAAGGUCGCGAAAGCGACCUUAGAAGGGCGAUCCU [Louisiana 1 - Jieux - Same State 1] | 46.3 | 75.8 |
| AGAAAUAAAAGAGAGGAUAUCCAAAAGAAAACAUGAGGAUCACCCAUGUAAAAGAAAAUAAAAUGGGAGAAGGCUCAAAAUAAAGA [Helter Skelter 2] | 21.6 | 69.7 |
| AAAAAAAAAAAUAAGGAUAUGUGAUCGGUGACAUGAGGAUCACCCAUGUAAGGCCUCCGGGACGGGCAGAAGGUAUAAAAAAAAA [Same State2-III] | 491 | 607 |
| AGAAAUAAAAGGCAGGAUAUCCAAAAGAAAACAUGAGGAUCACCCAUGUAAAAGAAAAUAAAGUGGGAGAAGGGCCAAAAUAAAG [My design (73%) + Space bases] | 11.7 | 36.5 |
| GAAGACAUAGUACAGGAUAUAUGAAUAGUCACAUGAGGAUCACCCAUGUCCAUUUAUAUGGGCACAUAGAAGGGUGGUAGUUGUC [Mat - Same state - Malcolm Mod - D125] | 8.69 | 35.3 |
| AAAAAACAUGAGGAUCACCCAUGUAAAAAAAUGGGAGGAUAUACAAAAACGAAAGUCAAAGUAGAAGGCCUGAAAA [same state 5] | 19.3 | 172 |
| AAAAGACAUGAGGAUCACCCAUGUAAAAACAUAGGAGGAUAUGUCGUGAAAAAAGACUUGGCAGAAGGCCUAUGUC [SS1 - 44] | 19.7 | 30.7 |
| CGGAGACAUGAGGAUCACCCAUGUGAGAAGAGGCGAGGAUAUCGAAAGAAAGAAGAGAAACGAGAAGGCGCGAGAU [salish99-SS1-069] | 20.4 | 29.8 |
| AGAAAUAAAAUGGAGGAUAUCCAAAAGAAAACAUGAGGAUCACCCAUGUAAAAGAAAAUAAAAUGGGAGAAGGCCACAAAUAAAG | 26.8 | 31.4 |
| AAGAAACAUGAGGAUCACCCAUGUGAGAUAAACACAGGAUAUGCGAAAAGAAAUAAAUAAGCAGAAGGGUGAAGAA [Mat - Same State 1 - Tesla mod - 70] | 26.4 | 62.6 |
| AGAAAUAAAACACAGGAUAUCCAAAAGAAAACAUGAGGAUCACCCAUGUAAAGAAAAUAAAAAUGGGAGAAGGGUGAAAAUAAGA [Mat - Same State 2 - JL mod - D15] | 19.9 | 31.5 |
| AACAAUCUAUCUGAGGAUAUAUGUCGAAAGACAUGAGGAUCACCCAUGUAAAAACAUGAAAAGACAUAGAAGGCAGAUAGAUUGA [SS2: 1132] | 18.6 | 36.1 |
| GACAAACAUGAGGAUCACCCAUGUAGAAAUAUGGGAGGAUAUACAAAGACGAAAGUCAAAGUAGAAGGCCUAAAAG [77%, Mat - Mod of Eli - With 1 more C's] | 21.7 | 79 |
| AUAAAAUAAAAGGAGGAUAUCCUUAAUAAAACAUGAGGAUCACCCAUGUAAAAAAUAAUAAAAUGGGAGAAGGCCUAAAAUAAAU [SS2 M 26] | 24.2 | 64.2 |
| AAGAAACAUGAGGAUCACCCAUGUAAUAAUAUGGGAGGAUAUACAAGGACAAUAGUCAAGGUAGAAGGCCUAAGAA [Mat - Same State 1 - Meechl mod - D142] | 26.7 | 249 |
| GAGAAGAAGAGAGAGGAUAUCCAAAGGAAAACAUGAGGAUCACCCAUGUAAAAGGUAGGAAAUUGGGAGAAGGCUCAAAGGAGGG [salish99-ss2-031] | 23.2 | 29.5 |

| Sequence | apparent KD of MS2 coat protein (MS2 coat protein [1]) [nM] | apparent KD of MS2 coat protein (MS2 coat protein [2]) [nM] |
| --- | --- | --- |
| AUAUAUAAAAGAUAGGAUAUACUAAAAUAAACAUGAGGAUCACCCAUGUAAAAAAAGAAACUCAUGUAGAAGGAUCAUAUAUAUA [ss2 7th] | 46.5 | 246 |
| UCAGUGCCGACGAAGGAUAUAGCGGGUGAGACAUGAGGAUCACCCAUGUAUGCAGAACUCAUCCUCUAGAAGGUUGAGACGGCAA [Onaaror] | 101 | 84.3 |
| AAAACACAUGAGGAUCACCCAUGUGCAAAAUUCGCAGGAUAUUUCUCGAUUAAAUGAUAGGAAGAAGGGUGAUAAA [Nob's Hobby 35 - Jieux - Same State 1] | 25.8 | 33.7 |
| AAAAUACAUGAGGAUCACCCAUGUCCGACAAAUCAAGGAUAUGAUAGCCAAACCAAGCUGUUAGAAGGUGAAAGAA [Edengere] | 499 | 208 |
| GAGGACGUAGGAUAGGAUAUGUGAAUAAUUACAUGAGGAUCACCCAUGUCCAUUUAUAUGGGAACAUAGAAGGGUUUUCGUUAUC [SameState2 Malc#40] | 646 | 387 |
| UAGAGACAUGAGGAUCACCCAUGUAGGAUUAUGGGAGGAUAUACAAAGACGAGAGUCAGAGUAGAAGGCCUAGGAC [salish99-ss1-136(!)] | 21.4 | 60.1 |
| AUAAAACAUGAGGAUCACCCAUGUAGAAAUAUGGGAGGAUAUACUAGAUCGAAAGAUCUAGUAGAAGGCCUUUAUG [JL Mod of Eli 5] | 45.4 | 49.3 |
| AACUACAUUAUGAAGGAUAUCCACAUCAAGACAUGAGGAUCACCCAUGUAUACUUAGAUCAUACAGGAGAAGGUCAAGGGUGAAU [JR_SS002_Sub1207] | 244 | 89.2 |
| AAAAAAAAUGUGUAGGAUAUCAGUAAAAAUACAUGAGGAUCACCCAUGUUCAAAAAAAAAAAAACUGAGAAGGACACGGAUGGUCC [Design 1] | 35.5 | 42.6 |
| GUAAGACAUGAGGAUCACCCAUGUAUGCGUCAGCAAGGAUAUGGGAAUAAAAGACAGAAACCAGAAGGUGCUGUUG [Enqudi] | 26.1 | 153 |
| AGGAAACAUGAGGAUCACCCAUGUAAAAAAAUGGGAGGAUAUACUAGAAGAAACAAAAUAGUAGAAGGCCUAAAAA [75%, Ex sub1, 27] | 18.9 | 74.9 |
| AAUGAACAUGAGGAUCACCCAUGUUCUAAUAGUUGAGGAUAUGUGGGUGAAAAUAGCACGGCAGAAGGCGAGUGUA [SameState1 Malc#19] | 101 | 80.7 |
| AAAAAACAUGAGGAUCACCCAUGUAAAAUUAUGGGAGGAUAUGGAAACACGAAAGUGAAACCAGAAGGCCUAAAAG [77%, Mat - Mod of Eli, 11] | 25.1 | 49.7 |
| AAAAAAAAAUCUCAGGAUAUAGAUUAUAGAACAUGAGGAUCACCCAUGUAGUGAAAGAAGAAAAACUAGAAGGGAGGAAAAAAAAA [Same State 2 #2] | 48.2 | 70.8 |
| AAUAAUUAUACGAAGGAUAUCGGUAAUUAGACAUGAGGAUCACCCAUGUUAUAUGGUUAAAUAUUCGAGAAGGUCGAGGGUGAAA [JR_SS002_Sub505] | 36.1 | 32.7 |
| GAAAAACAUGAGGAUCACCCAUGUGAGAAUAUGGGAGGAUAUUCAAAGACGAAAGUCAAAGAAGAAGGCCUAAAAG [Mat - Same State 1 - Eli mod - 37] | 31.2 | 276 |
| AAAAAAAAAGUGCAGGAUAUCCUCAUGGCUACAUGAGGAUCACCCAUGUGAAGAAAAGCACAUGAGGAGAAGGGCACAAAAAAAAA [Balance beam] | 12.3 | 23.1 |
| AAUAUACAUGAGGAUCACCCAUGUUUUGGUGGGUCAGGAUAUAAAAACAAUUACAUAAAGUUAGAAGGGACAAAUA [JR_SS001_Sub004] | 111 | 121 |
| AAAUAACAUGAGGAUCACCCAUGUUACAACAAUACAGGAUAUGUGGGUGAAAAUAGCAUGACAGAAGGGUAAUGUA [SameState1 Malc#32] | 239 | 79.8 |
| CGAGUACAUGAGGAUCACCCAUGUUAUGAAUUGUCAGGAUAUGGGUAGAGGUGACAUGCGCCAGAAGGGACGUCUG [JR_SS001_Sub1005] | 194 | 52.8 |
| GUGUAAAGAAUCGAGGAUAUCCUGAAAAGCACAUGAGGAUCACCCAUGUAAGAGCGAGAAUAAUGGGAGAAGGCGAGUUAUCGGU [JR_SS002_Sub1711] | 20.1 | 33 |
